# T1: rHuman Erythropoietin R/Fc Chimera, CF (R&D Systems Cat#963-ER) (human, UniProt P19235 25-250)
# T1 construct: Bought Fc chimera; also called EPO R/Fc; EPO R; Fc part of the bought chimera not given
# T1 sequence (looked up): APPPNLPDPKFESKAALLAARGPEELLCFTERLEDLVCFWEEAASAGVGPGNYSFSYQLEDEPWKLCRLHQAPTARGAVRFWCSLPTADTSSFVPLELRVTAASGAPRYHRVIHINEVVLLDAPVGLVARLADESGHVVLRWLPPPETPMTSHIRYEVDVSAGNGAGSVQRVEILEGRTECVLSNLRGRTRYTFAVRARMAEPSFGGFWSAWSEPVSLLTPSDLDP
# T2: rHuman Erythropoietin R/Fc Chimera, CF (R&D Systems Cat#963-ER) (human, UniProt P19235 25-250)
# T2 construct: Bought recombinant protein; also called EPO R/Fc; Epo R; Fc part of the bought chimera not given
# T2 sequence (looked up): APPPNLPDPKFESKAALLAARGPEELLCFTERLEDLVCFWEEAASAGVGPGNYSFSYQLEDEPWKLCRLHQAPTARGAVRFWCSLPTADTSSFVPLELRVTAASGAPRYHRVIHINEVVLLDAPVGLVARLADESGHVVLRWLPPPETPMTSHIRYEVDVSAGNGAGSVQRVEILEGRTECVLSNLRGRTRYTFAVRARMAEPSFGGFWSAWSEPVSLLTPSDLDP
# Columns and labels:
# [1] = target: T3, Recombinant Human DLL4 (R&D Systems Cat#1506-D4/CF) (human, UniProt Q9NR61 27-524); experiment: MSD multispot ECL, antigen spotted, Fab 2.3 nM; blank spot 234
# T3 construct: Bought recombinant protein; also called rHuman DLL4; delta-like protein 4
# [2] = target: T4, rHuman ErbB2/Fc Chimera, CF (R&D Systems Cat#1129-ER) (human, UniProt P04626 23-652); experiment: as above
# T4 construct: Bought reagent; also called human epidermal growth factor 2 receptor
# [3] = target: T5, rHuman EGF R/Fc Chimera, CF (R&D Systems Cat#344-ER) (human, UniProt P00533 25-645); experiment: as above
# T5 construct: Bought reagent; also called epidermal growth factor receptor
# [4] = target: T6, rHuman HGF R/c-MET/Fc Chimera, CF (R&D Systems Cat#358-MT/CF) (human, UniProt P08581 25-932); experiment: as above
# T6 construct: Bought reagent; also called HGF R/Fc; hepatocyte growth factor receptor
# [5] = target: T7, rHuman Notch-1/Fc Chimera, CF (R&D Systems Cat#3647-TK) (human, UniProt P46531 19-526); experiment: as above
# T7 construct: Bought reagent
# [6] = target: T8, rHuman CD44/Fc Chimera, CF (R&D Systems Cat#3660-CD) (human, UniProt P16070 21-220); experiment: as above
# T8 construct: Bought reagent
# [7] = target: T9, rHuman IGF-1 sR, (IGF-1 sR), CF (R&D Systems Cat#391-GR) (human, UniProt P08069 31-932); experiment: as above
# T9 construct: Bought soluble receptor; also called insulin-like growth factor-1 soluble receptor
# [8] = target: T1, rHuman Erythropoietin R/Fc Chimera, CF …; experiment: Multispot ECL (MSD) titration; antigen spotted on plate; Fab 232.5 nM; blank spot 460
# [9] = target: T10, rHuman CD44/Fc Chimera, CF (R&D Systems Cat#3660-CD) (human, UniProt P16070 21-220); experiment: as above
# T10 construct: Bought Fc chimera; Fc part of the bought chimera not given
# [10] = target: T11, rHuman P-Cadherin/Fc Chimera, CF (R&D Systems Cat#861-PC) (human, UniProt P22223 108-654); experiment: as above
# T11 construct: Bought Fc chimera; Fc part of the bought chimera not given
# [11] = target: T2, rHuman Erythropoietin R/Fc Chimera, CF …; experiment: MSD multispot ECL, antigen spotted on plate; Fab 0.00797 uM; blank spot 364
# [12] = target: T12, Recombinant Human DLL4 (R&D Systems Cat#1506-D4/CF) (human, UniProt Q9NR61 27-524); experiment: as above
# T12 construct: Bought recombinant protein; also called delta-like protein 4; rHuman DLL4
# [13] = target: T13, rHuman ErbB2/Fc Chimera, CF (R&D Systems Cat#1129-ER) (human, UniProt P04626 23-652); experiment: as above
# T13 construct: Bought recombinant protein; also called human epidermal growth factor 2 receptor; Fc part of the bought chimera not given
# [14] = target: T14, rHuman EGF R/Fc Chimera, CF (R&D Systems Cat#344-ER) (human, UniProt P00533 25-645); experiment: as above
# T14 construct: Bought recombinant protein; also called epidermal growth factor receptor; Fc part of the bought chimera not given
# [15] = target: T15, rHuman HGF R/c-MET/Fc Chimera, CF (R&D Systems Cat#358-MT/CF) (human, UniProt P08581 25-932); experiment: as above
# T15 construct: Bought recombinant protein; also called HGF R/Fc; hepatocyte growth factor receptor; Fc part of the bought chimera not given
# [16] = target: T16, rHuman Notch-1/Fc Chimera, CF (R&D Systems Cat#3647-TK) (human, UniProt P46531 19-526); experiment: as above
# T16 construct: Bought recombinant protein; Fc part of the bought chimera not given
# [17] = target: T17, rHuman CD44/Fc Chimera, CF (R&D Systems Cat#3660-CD) (human, UniProt P16070 21-220); experiment: as above
# T17 construct: Bought recombinant protein; Fc part of the bought chimera not given
# [18] = target: T18, rHuman IGF-1 sR, CF (R&D Systems Cat#391-GR) (human, UniProt P08069 31-932); experiment: as above
# T18 construct: Bought recombinant soluble receptor; also called insulin-like growth factor-1 soluble receptor
# [19] = target: T19, rHuman P-Cadherin/Fc Chimera, CF (R&D Systems Cat#861-PC) (human, UniProt P22223 108-654); experiment: as above
# T19 construct: Bought recombinant protein; Fc part of the bought chimera not given
binder,measurement,setting,value
"Fab VH1-46_IGHD6-6*01_IGHJ1*01 & L6_IGKJ1*01 (Fab, V domains shown, Only variable domains are tied to the molecule; Tested as a Fab made in E. coli: heavy chain from Plasmid A (CH1 constant region, His6 and Flag tags), kappa light chain from Plasmid C (kappa CL); also called parent Hit Fab against DLL4; VH1-46_IGHD6-6*01_IGHJ1*01 & L6_IGKJ1*01 (parental)) VH: QVQLVQSGAEVKKPGASVKVSCKASGYTFTSYYMHWVRQAPGQGLEWMGIINPSGGSTSYAQKFQGRVTMTRDTSTSTVYMELSSLRSEDTAVYYCAREEYSSSSAEYFQHWGQGTLVTVSS VL: not shown",ECL signal,[1],3060 ECL signal
same,ECL signal,[2],291 ECL signal
same,ECL signal,[3],289 ECL signal
same,ECL signal,[4],253 ECL signal
same,ECL signal,[5],333 ECL signal
same,ECL signal,[6],317 ECL signal
same,ECL signal,[7],231 ECL signal
"Fab VH1-46_IGHD6-13*01_IGHJ4*01 & O1_IGKJ1*01 (Fab, V domains shown, Germline library Fab expressed in E. coli; VH was cloned into Plasmid A (CH1 constant region, His6 and Flag tags); The kappa VL was cloned into Plasmid C (kappa CL)) VH: QVQLVQSGAEVKKPGASVKVSCKASGYTFTSYYMHWVRQAPGQGLEWMGIINPSGGSTSYAQKFQGRVTMTRDTSTSTVYMELSSLRSEDTAVYYCAREGYSSSWYDYFDYWGQGTLVTVSS VL: DIVMTQTPLSLPVTPGEPASISCRSSQSLLDSDDGNTYLDWYLQKPGQSPQLLIYTLSYRASGVPDRFSGSGSGTDFTLKISRVEAEDVGVYYCMQRIEFPSWTFGQGTKVEIKR",ECL signal,[8],1470
same,ECL signal,[9],607
same,ECL signal,[10],655
"Fab VH4-34_IGHD7-27*01_IGHJ4*01 & L5_IGKJ1*01 (Fab, V domains shown, Germline library Fab expressed in E. coli; VH was cloned into Plasmid A, which adds CH1 with His6 and Flag tags) VH: QVQLQQWGAGLLKPSETLSLTCAVYGGSFSGYYWSWIRQPPGKGLEWIGEINHSGSTNYNPSLKSRVTISVDTSKNQFSLKLSSVTAADTAVYYCARANWGDYFDYWGQGTLVTVSS VL: DIQMTQSPSSVSASVGDRVTITCRASQGISSWLAWYQQKPGKAPKLLIYAASSLQSGVPSRFSGSGSGTDFTLTISSLQPEDFATYYCQQANSFPPWTFGQGTKVEIKR",ECL signal,[11],566
same,ECL signal,[12],872
same,ECL signal,[13],493
same,ECL signal,[14],530
same,ECL signal,[15],419
same,ECL signal,[16],654
same,ECL signal,[17],490
same,ECL signal,[18],564
same,ECL signal,[19],502

# From patent US20120316071A1 (published 2012)
